The values below come from paper PMC5333631 (Scientific Reports, 2017).

This test concerns the target 6xHis-TrxA-BoNT/A2-HC (UniProt Q45894 871-1296). Put plainly: pull-down. Particulars: both partners purified.

Chain of 6xHis-TrxA-BoNT/A2-HC (Q45894 871-1296): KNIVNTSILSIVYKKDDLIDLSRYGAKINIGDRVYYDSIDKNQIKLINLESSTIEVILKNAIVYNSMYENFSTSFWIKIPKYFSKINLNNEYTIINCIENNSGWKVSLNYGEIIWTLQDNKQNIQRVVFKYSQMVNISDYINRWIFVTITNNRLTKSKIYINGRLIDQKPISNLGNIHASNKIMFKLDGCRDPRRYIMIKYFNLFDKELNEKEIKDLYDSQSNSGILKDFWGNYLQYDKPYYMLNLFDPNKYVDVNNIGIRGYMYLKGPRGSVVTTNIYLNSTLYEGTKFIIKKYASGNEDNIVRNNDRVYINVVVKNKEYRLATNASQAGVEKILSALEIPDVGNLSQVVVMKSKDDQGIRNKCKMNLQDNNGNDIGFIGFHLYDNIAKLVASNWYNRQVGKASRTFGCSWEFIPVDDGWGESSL

B1: luminal domain (LD) of human SV2C (domain or fragment, UniProt Q496J9 456-574, looked up)
chain: DVIKPLQSDEYALLTRNVERDKYANFTINFTMENQIHTGMEYDNGRFIGVKFKSVTFKDSVFKSCTFEDVTSVNTYFKNCTFIDTVFDNTDFEPYKFIDSEFKNCSFFHNKTGCQITFD
notes: also called SV2C-LD; untagged SV2C-LD; not shown: 6xHis, N-terminal, cleaved
Consider B1, for which the binding result is “binds”.
